Experimental data: a protein production outcome set (Wang et al. 2014)

Assay: label from the status in PepcDB records
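Also: failed if final PepcDB status was selected cloned or expressed and not failed if soluble or beyond.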

Row | Sequence | protein production
1 | MEEKKSSGMFAVFAALGANVLVAISKFIGFGLSGSAAMLNESIHSVVDCGNQILLLFGDRRSRQASTNLHQFGEARAKYFFSMIVATFLFFGGGVIGVMEAYDKLVHPAHSVENAGIVIGILLIGMAIEGSSLRVAFKEISELNTEKLPIFKFLHESRHSEILVIFAEDLCAIIGLLLALLGTVLTMVTGNPIFDAISGLLIGFLLMAAAIFLTREFYSLIVGERVTDSDLEKILTAFDRPEVERVINVKTVHLGPTEILIAAKIDLVSKLVLEDYEIINQIEAEIRKKISDKKCYIYIEIDEFVQGYVQSSDL | failed
2 | MEEKNGSSEVEIGEKDETKKQSKDLEFLSCMMQPKTADSDPHYIGIRRILLHRKADSGVISRRYDWRCNGKGYVAYRNFISKPRKWENLRTPSLLSSPGNSGRWLPSPSPLSHQFEAESFTSSRDLRSVNQVSSRRASFSSSLSDGDNSYRRGGVEHAYSFVGMHCIFDQCKSSVTVLKFGHMSSDILAYGASDGSLTVCSLLEEPSVLKQLTGHSKDVTDFDFSSNNQYIASSSLDKTIRVWELSRGVCIRVIYGISPQYCIRFHPVNNNFLSAGNANKELTVFNFSTGRIIKKLLFEDEVTSMDHDHTGQIIFCGDGQGTVYSVSMDSHTGSLSRSHRHRTNHKSPVTTVKYRSFSLLASGPVLLTCTQDGNLSFFSVALQIKGYLTLRCSLKLAPRIHRIQASFCPLLSLEKGEYIVAGSEDSNVYFYDLTKPKHTCVNKLQGHRFPVMCVAWNHGENLLASSDFYGVVIVWKRAKTSS | failed
3 | MEEKQPQKTKEPSKEDEPQQKEMPTHLSLGAESKAEAKTPVLVETQTVDNANEKSEKPPENQKKLSDKDTVATKIKAWWRGTLVRRALLHAALSACIIQCWWRLILSKILKKRRQAALEAFSRKEWAAVTLQSQARMWRIRRRYCQVLNAVRIIQAYWRCRSCASRGFIKGQYRVTANQLHLQLEILLDSGPCIVTECIPFSIKE | failed
4 | MEELFCIGCGIQIQTEDKEKAGFTPAAALKKGMETGELYCQRCFRLRHYNEITDVHITDDEFLRLLHEVGDSDALVVNVIDIFDFNGSIIPGLSRFISGNDVLLVGNKKDILPKSVKDGKVTQWLTERAHEEGLRPLDVMLTSAQNKYAIKDLIGRINELRNGRDVYVVGVTNVGKSTLINAIIQEITGNKDVITTSRFPGTTLDKIEIPLDDGTFIFDTPGIIHRHQMAHYLSPKELKIVSPKKEIKPKTYQLNPEQTLFLGGLARFDFINGERQGFTAFFDNQLELHRTKLAGADAFYDKHVGTLLTPPDKKELTAFPKLVRHEFTIDQKMDIVFSGLGWIRVNGQKDSKAIVAAWAPEGVAVIVRKAIILEHHHHHH | not failed
5 | MEELLDILREFRDSRGWLKYHTPKNLAVSISIEVAELLEIFQWTRSSDEEFEVLERRKGEVEEEIADVLIYLLFLCDVAEINPIEAVKRKMEKNERKYPKNRVHEF | not failed
6 | MEEPEFQAYVGPRPFEQEDKFIFFGRDREARDLLSLVIAHNLVLVYAQSGAGKTSLINAGLIPLLKENRFEVFPVARVKGTPLRNIKTDEISNIYVLNTLTSWAEDEYDVERLTKMKLVDFLNEQERLQDEDGIPLPRAVIFDQFEEIFSLYQDRWKDREGFFEQISAALETDPLLRVVFVIREDFIAQLDPYVELLPERLRTRFHIERLRREAALLAIKEPLRDTGRSFAEGVAEKLVDDLLKIRVETTPGETTEVTGEFIEAVQLQVVCQNLWRELPPDVKQITFHHLKTYGNVEQELYRFYEEAIRTAAATAHIDEESLRRLFGEVLITTMGTRGMVYRAQESTGGIPNTAIDVLESMHLIRAEWRAGARWYELTHDGFIKPILSSNRVFNDELAEKERAEKERIEKERIEKEWAEKEWAEKERLEKERAEKERLEKELRAEKELAESKQLFYKRLAAISFLAILLALVAVFEWHQAKENAEEARASDLNLNSALLQGDPRNLDKSVLLAIESLKIHITSTADHLIRQGLLSMPHRVVILKHYSDVNNVVFSPDGKYVATASNDNTSRLWDVSTGKQIFVLNHTDPVRNVVFSPDGKYVATASADKTAGVWNTTTGEGISVLNHTGRVNNVVFSPDGKYIATASDDNTSRLWDTATGKQIFVLNQTDPVRNVVFSPDGKYIATASADNTSRLWDTTTGKQIFDMKHDGPVNIVVFSPDGKYVATASADKKARLWNATTGKKIFDMKHDSGINTVVFSPDGKYIVTASDDKTAGVWNTTTGKKIFDMKHDGSVNTVVFSPDGKYIATASADNTSRLWDTATGEKIFFLNHYGWVNTVVFSPDGKYVATASADKTAHLWDVSTGKQISYLRHDSGVNNVVFGPDGKYVVTASADKTADVWNTTTGEKIFVLNHTGRVNNAVFSPDGKYIATASADNTSRLWDTTTGKQIFVLNQTDPVRNVVFSPDRKYIATASDDNTSRLWDTATGKQILVLNHDGPVNTVVFSSDGKYIATASDDNTSRLWDTATGEEIFVLNHTDRVNNVVFSPDGKYIATAGDDNTSRLWGTATGEKIFDMKHDGPVNNVVFSPDGKYVATAGYDNTACLWDTATGEKIFVLNHAGRVNTVVFSPDGKYIATASADKARLWNATTGKQISYLRHDSGVNNVVFSPDGKYIATASVDKTARLWTAKLWISDTEDLIDEANNRLTRNLKPEEWKEYMGDKPYHKRFPNLP | failed
7 | MEERNEQVVEEVKEEVKEAQVEEAVTSEDSEESVEEKSEAALLQEKVDELQAKLTETEGRMLRLQADFENYKRRVQMDKQAAEKYRAQSLVSDILPALDNFERAMQVEANDEQMKSLLQGMEMVYRQLLEAMTKEGVEAIEAVGKQFDPHEHQAVMQVEDSEFESNAVVEEFQKGYKLKDRVIRPSMVKVNQ | failed
8 | MEESTVQAPSKRRCSVYEVDGFRFRRKKKRTTESSFVEPIQKEVSNSDSCGHVNDDLNNEEKENKLNVATVPIKSRETVSLAKQEEKTKKLYCESISKDQSEEQRLKALCEAVWTEIYKEAIEEKLPEKGTSLRVLEDVRVAFLDQLTWYLDNPEQRSKTVSEISRPNPINLELEVKIKSLEHDLNCYCNELLGWSNAKSILEEPAKDNKSNETAFSIEERAKKIAVSLSSPYQPQLTRLIKEATVCLDINFTELLEICRIVLTFKNQTAERIKVSYKQELFSNHYQHENS | failed
9 | MEFILEPWHWFVLGILLMLSELVITAFAALWFGIAAIMVSVLLWLFPMMGITTQVIMWIILSVLCTLLWFKFIKPLSIDKTKAGLSREATIGQIGMVIRVGLSHEQIVVRFALPVLGADEWNCRSLAPVEVGDRVCVVDIMGNDLVVQPHIPINNK | failed
10 | MEFPKMLTRKIKLWDINAHITCRLCSGYLIDATTVTECLHTFCRSCLVKYLEENNTCPTCRIVIHQSHPLQYIGHDRTMQDIVYKLVPGLQEAEMRKQREFYHKLGMEVPGDIKGETCSAKQHLDSHRNGETKADDSSNKEAAEEKPEEDNDYHRSDEQVSICLECNSSKLRGLKRKWIRCSAQATVLHLKKFIAKKLNLSSFNELDILCNEEILGKDHTLKFVVVTRWRFKKAPLLLHYRPKMDLL | failed
11 | MEFWESSFIEKQTMWGFEPTESAILTKDFFLEKNVKNILVPGIGYGRNAKVFIDNGINVTGIEISKTAIDLARENGLEDVSMYHGSVNEMPFDNKLYDGIFSHALLHLLNEQEREKFIEDCYNQLKPGGYMVFTTVSKKAPMYGKGKQLDKDYYEIMDGVKMFFYDSESIKKDFNQYRLVQVSEIDEPNKNMANKPSINFLMIKCKKER | failed
12 | MEGFHMVSDMCPQITGWRIYVFVVRVFKNVISPNVFELGLILADYAGSNSRIEATVDRRLAPFYEDRFVENEWKTITSFLVRKATDSVRATKHEYGILFMDRTVVVEAPPRSPPVPDFDFTPFDYILEKSAYKNVLVDVVGALVDVGGLTTDYYGLKMSFKIKDRYNEVLECEARNKQAEYLDGYFKSLGKGNFVVALSFWRLTELSNPKLASHGAISKVVANPDIPEVADIAMVVF | failed
13 | MEGIMNPYTALPTPQQLLAIEQSVYSSDPFRQGLTPPQMPGDHMHPYGAEPLFHDLDSDDTSLSNLGDCFLATSEAGPLQSRVGNPIDHLYSMQNSYFTS | not failed
14 | MEGITYMNLGTNDKLPKLNTHYSSLSKRLMASFFDNVIISALSYLLSIIIFIIMTIFSFRYLDEFINHIYLIYFSLHFLVAFFYYITMESSSFQGTLGKLIADIKVVKLNGDKVSIFQAFCRFFIANILLYPAYFFYALVLYNVSNQIIINHSCNPYKINSFYFYGLISSSLIYLIYKLVMLITILISNKKQGIHDILIKTLVIIR | failed
15 | MEGKGSFSENLVKRLQLVKANRSHLAPLIDLLRSKVSKSVKRNKHFFRDYADQIYIVSSGFKEFILPIVTEFGIKEEHVMANTFTFDNDGNIIGCDANNPLSQDKGKIKLMEKLGLTGDVHVIGDGYTDYEIRGAGLASKFYAFTENVSRAAVTAKADSIAPSFDEILFQEKL | failed
16 | MEGNFIVARFDKNTSFFEDLEEVCNKHGVKAGTVVWAIGMLKDFEVGYWNGQDYEKETFRERLEIVSLHGTIAENDPKYHIHASGARSNHMIVGGHLFSATVDPLIEIQIMKIEGPKMTRVQDPSDKLFKLKIE | failed
17 | MEGSQQTITSKQLVRMLKDASRGSKGKGSGEMKFCFLIGAGASISSGIPSGAKLAWDWLQQIKEDCDGEDFEDWKIEIKMPDQHIEERVGEFYPEIYEKRFGHAPETGYDYIRGLMEGREPSLGYLILANIMVREKHNVVITTNFDNLLEDAIRTYTKEKPFIAGHEALADYVPKRSDRPIILKLHRDLFLQPFSDQLNTDILQAAWESILGKFLSDYHLIVLGYGGNDGSLMNYLLKLKNRKPIYWCVRNTDKATSKSLWNTLSPKAKRLLKNDGYLVPIDDFDRFMYDCYAALGYKFLEGIEKIEKPKSIHEILKPNYARIESIQTQLRQLSQTEEELSKESFQSIKSFLPDSWMWILKANQEKDIDKKDKIYREGIAKYPQDANLLGDYADFLCDICHDYDRAEAYYKRALEADPNHANTLGNYALFLKDVRHDYDQAEAYYKRALAADPNHANNLGNYANFLYNIRCDYDQAETYYKKALEADPNHANTLGNYANFLCDIRHDYDQAEGYYKKALEADPKNAITLGNYALFLNDIRHAYDQAEAYYKRALEVDPKSANKLGNYAHFLITCRGDFKRADSLIQQAFENADNDEETKPLQAKLWFYRYAHYYEEWGAEAEKELAALLNVGAKSIGWNLAPDIELARKNKHPHIEQVEAFAKALTEKAQ | failed
18 | MEGYRLLYPMRTYLIVSGHGEETNVMAADWVTVVSFDPFIVGVAVAPKRTTHKLIKKYGEFVISVPSLDVLRDVWIAGTKKGPSKLKEMSVTLIPSKKVKVPSIEEALANIECRVIDARSYGDHTFFVGEVVGYTYKDYAFEKGKPNLKAKFLAHVSWSEFVTFSEKVHKAE | not failed
19 | MEHICGTSRIAGFRFSLYPMTDDFISVIKSALKKTDTSKVWTKTDHISTVLRGSIDHVFDAAKAIYLHAANSEQHIVMNGTFSIGCPGDTQGDTYLSKGDKRVNEDAVRGLKAEAPCQFALYPMNEPDYMGLIMEAVDIAKAQGTFVQGVHYASELDGDAHDVFSTLEAVFRMAEQQTNHITMTVNLSANSPSRKNRKQG | not failed
20 | MEHKISEPNARVDVADVLRGLAVMGIIILHSIEHFNFYSFPDTVPCEWMKFTDKAIWNGLFFVFSNKAYAIFALLFGFSFYIQDNNQQRRGKDFRLRFIWRMALLFIIGQFNAAFFTGEILTMYAMLGLILPLSCRLSDRSIAIFATLLIIQPIDWCKVIYALCNPDYVAGPGLASHYFGIAFDVQKNGTFLETIRMNLWEGQLANLTWALEHGRILQTPALFLFGMLVGRKGLFLYSEQNEQHWLKALGISLICFFPLYGLNNMLPEFITRNAIRVPLQLIISSLSNLSFMVLLVSGLLITFYRIKDRRFLMRFTSYGKMSLTNYIGQSVIGSLLFYHWGFELGRFLGITYSFFFGILFVLLQMAFCSWWLSHFKHGPFEGLWKRLTWIGNNKRK | failed
21 | MEHREKCTRCGQCLEVCSRYEDLGVLDRLYGYLDGSSNIDSESLLRCLTCGLCISACPENLGIKPLISPSRQKWINENGLSERLEHHHHHH | failed
